Experimental data as given in patent US8344120B2, “Nucleic acid molecules encoding rage fusion proteins” (TransTech Pharma, Inc., priority 2006, dated 2013).
Where “and” joins values, the source holds several entries; their conditions need not be identical. Equal entries are not always repeated.

Assays:
[1] = molecular target: T1, amyloid-beta (Abeta) (Homo sapiens, UniProt P05067); experiment: In vitro ligand binding ELISA, immobilized amyloid-beta; settings: ligand 5 micrograms per well; fusion protein at increasing dilutions, 37° C. one hour
T1 construct: Amyloid Beta (1-40) from Biosource; purchased Biosource
Protocol: (§1) For example, the RAGE fusion protein may be used in a binding assay to identify potential RAGE ligands. In one example embodiment of such a binding assay, a known RAGE ligand may coated onto a solid substrate (e.g., Maxisorb plates) at a concentration of about 5 micrograms per well, where each well contains a total volume of about 100 microliters (4). The plates may be incubated at 4° C. overnight to allow the ligand to absorb or bind to the substrate. Alternatively, shorter incubation periods at higher temperature (e.g., room temperature) may be used. […] The RAGE fusion protein bound to the immobilized ligand may be detected in a variety of ways. […] The bound complex may be detected by adding the alkaline phosphatase substrate, para-nitrophenylphosphate (PNPP), and measuring conversion of PNPP to para-nitrophenol (PNP) as an increase in absorbance at 405 nm. […] In the absence of ligand (i.e., coating with only BSA) there was no increase in absorbance. […] Binding was detected by the addition of an immunodetection complex containing a monoclonal mouse anti-human IgG1 diluted 1:11,000 to a final assay concentration (FAC) of 21 ng/100 μL, a biotinylated goat anti-mouse IgG diluted 1:500, to a FAC of […], and an avidin-linked alkaline phosphatase. […]

[2] = molecular target: T2, amphoterin (Ampho) (Homo sapiens, UniProt P09429); experiment: In vitro ligand binding ELISA, immobilized amphoterin; settings: ligand 5 micrograms per well; fusion protein at increasing dilutions, 37° C. one hour
T2 sequence (P09429 1-215): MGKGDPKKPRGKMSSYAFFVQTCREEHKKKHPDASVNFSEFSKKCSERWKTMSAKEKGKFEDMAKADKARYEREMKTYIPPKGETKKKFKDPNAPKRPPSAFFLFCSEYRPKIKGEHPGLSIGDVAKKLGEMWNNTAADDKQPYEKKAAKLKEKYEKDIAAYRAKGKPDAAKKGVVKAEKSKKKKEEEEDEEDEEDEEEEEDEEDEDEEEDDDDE
Protocol: as §1

[3] = system: recurrent diabetes in syngeneic NOD transplant model; experiment: Syngeneic islet transplantation in NOD mice; format: in vivo
Description: Spontaneous autoimmune non-obese diabetic mice (NOD/LtJ) (12-25 weeks old) served as recipients for islet cells, while young pre-diabetic NOD/LtJ mice (6-7 weeks old) served as donors in syngeneic islet transplantation. Islets for transplantation were isolated as described above in Section A (Allogeneic Islet Transplantation). Diabetic NOD/LtJ mice received islet grafts within 2 days of the diagnosis of diabetes. 500-600 freshly isolated islets (approximately 550 islet equivalents) from donor mice were picked up with an infusion set and transplanted into the subcapular space of the right kidney. Test compounds were administered as soon as the islets were transplanted and continued for approximately 8 weeks. […] Islet graft function was monitored by serial blood glucose measurements daily for the first 2 weeks after islet transplantation, followed by every other day thereafter. Reversal of diabetes was defined as blood glucose less than 200 mg/dl on two consecutive measurements. Percentage graft loss was determined when blood glucose exceeded 250 mg/dl on two consecutive measurements.

[4] = 300 ug LD + 100 ug qod ip, syngeneic islets in NOD mice

T1 sequence (P05067 672-711 limits assumed): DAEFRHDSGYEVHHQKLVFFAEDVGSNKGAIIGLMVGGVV

B1: TTP-4000: four domain RAGE fusion protein: human RAGE N-terminal sequence (to position 251) linked to human IgG Fc (γ1) without hinge; SEQ ID NO: 34/56 (protein)
chain: QNITARIGEPLVLKCKGAPKKPPQRLEWKLNTGRTEAWKVLSPQGGGPWDSVARVLPNGSLFLPAVGIQDEGIFRCQAMNRNGKETKSNYRVRVYQIPGKPEIVDSASELTAGVPNKVGTCVSEGSYPAGTLSWHLDGKPLVPNEKGVSVKEQTRRHPETGLFTLQSELMVTPARGGDPRPTFSCSFSPGLPRHRALRTAPIQPRVWEPVPLEEVQLVVEPEGGAVAPPSVFLFPPKPKDTLMISRTPEVTCVVVDVSHEDPEVKFNWYVDGVEVHNAKTKPREEQYNSTYRVVSVLTVLHQDWLNGKEYKCKVSNKALPAPIEKTISKAKGQPREPQVYTLPPSRDELTKNQVSLTCLVKGFYPSDIAVEWESNGQPENNYKTTPPVLDSDGSFFLYSKLTVDKSRWQQGNVFSCSVMHEALHNHYTQKSLSLSPGK
- binding to immobilized amyloid-beta (increase in absorbance at 405 nm) [1]: specifically interact
- binding to immobilized amphoterin (increase in absorbance at 405 nm) [2]: specifically interact
- day of graft loss for each animal [3, 4]: 40 day and 43 day and 36 day and 45 day and 44 day and 38 day (2×) and 35 day
- day of graft loss, Mean [3, 4]: 39.875 days
- time before detection of graft failure, in words ([3]; versus animals not treated at all): increase in the time before detection of graft failure
